# What was measured:
# Experiment in all cases: fluorescence polarisation
# [1] = biological target: RRE of TbtF (residues 1–85)
# [2] = biological target: TbtF
# [3] = biological target: MBP-TbtD
Substance,Kd [1] [nM],IC50 [2] [nM],IC50 [3] [nM]
synthetic TbtA leader peptide derivatized with fluorescein isothiocyanate (FITC) at the N-terminus,100,–,–
TbtA M(−27)A (peptide),–,2750,1090
TbtA P(−28)A (peptide),–,850,2660

# Reference: publication PMC5148741
